Results on seven molecules are retold here after patent publication US20100041597A1 (published 2010).

B1: PRE 6 (peptide)
peptide: Ac-KDANQLIGISI-NH2
notes: Synthetic peptide; also called peptide PRE 6
B2: PRE 13 (peptide)
peptide: Ac-RDAQNLI-NH2
notes: Synthetic peptide; also called peptide PRE 13; Ac-RDAQNLI-NH2
B3: PRE 7 (peptide)
peptide: Ac-ISIGILQNADK-NH2
notes: Synthetic peptide (retro form of PRE 4); also called peptide PRE 7
B4: PRE 4 (peptide)
peptide: Ac-KDAQNLIGISI-NH2
notes: Synthetic peptide; also called peptide PRE 4
B5: PRE 11 (peptide)
peptide: Ac-RDAQNLIGISI-NH2
notes: Synthetic peptide; also called peptide PRE 11
B6: PRE 12 (peptide)
peptide: Ac-KDAQNLI-NH2
notes: Synthetic peptide; also called peptide PRE 12; Ac-KDAQNLI-NH2
B7: PRE 3 (peptide)
peptide: Ac-AKGIQEVKGGDAQNLIGISI-NH2
notes: Synthetic peptide; also called peptide PRE 3

T2 sequence (P05771 other isoform, or with tags, fused parts or gaps limits assumed): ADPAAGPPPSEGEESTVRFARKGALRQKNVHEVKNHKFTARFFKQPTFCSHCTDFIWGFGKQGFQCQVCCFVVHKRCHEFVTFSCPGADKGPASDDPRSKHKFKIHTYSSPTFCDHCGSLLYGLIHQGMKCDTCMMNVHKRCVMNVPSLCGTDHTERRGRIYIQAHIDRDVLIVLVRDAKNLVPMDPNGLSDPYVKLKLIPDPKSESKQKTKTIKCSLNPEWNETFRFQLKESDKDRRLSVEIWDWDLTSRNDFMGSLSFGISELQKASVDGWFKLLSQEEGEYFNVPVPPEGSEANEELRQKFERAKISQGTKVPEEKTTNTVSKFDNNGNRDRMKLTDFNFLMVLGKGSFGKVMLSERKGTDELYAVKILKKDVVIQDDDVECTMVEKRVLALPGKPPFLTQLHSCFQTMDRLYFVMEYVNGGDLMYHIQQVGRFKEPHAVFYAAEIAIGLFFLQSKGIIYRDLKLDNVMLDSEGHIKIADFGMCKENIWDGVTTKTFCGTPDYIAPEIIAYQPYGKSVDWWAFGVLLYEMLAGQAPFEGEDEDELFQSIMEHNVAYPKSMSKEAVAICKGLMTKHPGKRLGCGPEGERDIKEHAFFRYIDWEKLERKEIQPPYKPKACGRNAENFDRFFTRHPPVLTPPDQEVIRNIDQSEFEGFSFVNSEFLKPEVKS

The target in one assay is T1, PKC-ι (endogenous, human cell extracts) (human, UniProt P41743 2-596).
T1 construct: also called PKC-iota
T1 sequence (looked up): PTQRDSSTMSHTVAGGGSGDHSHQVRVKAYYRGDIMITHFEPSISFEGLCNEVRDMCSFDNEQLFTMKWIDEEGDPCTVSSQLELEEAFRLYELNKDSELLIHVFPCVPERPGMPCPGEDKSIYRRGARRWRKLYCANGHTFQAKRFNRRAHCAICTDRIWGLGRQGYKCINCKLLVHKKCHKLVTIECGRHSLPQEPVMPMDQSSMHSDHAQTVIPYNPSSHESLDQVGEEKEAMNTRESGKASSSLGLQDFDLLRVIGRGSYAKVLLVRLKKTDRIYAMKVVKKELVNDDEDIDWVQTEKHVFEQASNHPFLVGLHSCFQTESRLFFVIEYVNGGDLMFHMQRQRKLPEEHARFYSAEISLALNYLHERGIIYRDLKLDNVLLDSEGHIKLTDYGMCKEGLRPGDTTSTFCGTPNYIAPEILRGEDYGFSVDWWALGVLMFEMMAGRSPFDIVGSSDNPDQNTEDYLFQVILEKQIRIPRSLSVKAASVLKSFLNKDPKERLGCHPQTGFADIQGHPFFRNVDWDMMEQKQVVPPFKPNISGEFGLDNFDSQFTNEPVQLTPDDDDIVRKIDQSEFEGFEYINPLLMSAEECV
Kind of assay: Western-blot competition on cell extracts against the anti-PKC-ι primary antibody; band densitometry. Here is the method: Binding efficiency and specificity of the peptides PRE 2, 3, 4, 5, 6, 7, 8, 9, 10, 11, 12 and 13 (see Table 3) was also tested using cytoplasmic extracts from different cell lines expressing appropriate PKC isoforms as described for Example 1. Briefly, the protein cytoplasmic extracts were separated by electrophoresis and transferred onto nitrocellulose membranes by standard Western blotting procedures. The bands on the Western blots were detected with matching primary antibodies and alkaline phosphatase conjugated secondary antibody. The bands were then scanned and the relative density measurements obtained.
This procedure to assess the binding characteristics of the PREs is based on competition binding of the PRE with the primary anti-isoform PKC specific antibodies. The lower the measured band density, the greater the binding of the PRE to the PKC isoform. The PREs were added at 10 and 20 times (10×, 20×) the primary antibody concentration, according to classical competition between antigenic peptide and primary antibody. The following cell lines (obtained from the ATCC) were used: H661—NCI human lung carcinoma NSCLC; MDAMB231—human highly invasive breast cancer cell line from pleural effusion; LS180—human colon adenocarcinoma; LnCAP—human prostate adenocarcinoma; CCD16Lu—human lung fibroblasts; Du145—human prostate carcinoma brain metastasis, and T24—human bladder carcinoma.
With B1, the binding result was “no binding (tested: 20X the primary antibody concentration)”.
Still for that read-out and setting: the entry for B2 is “no binding (tested: 20X the primary antibody concentration)”; for B3 it is “no binding (tested: 20X the primary antibody concentration)”.

The next assay addresses T2, PKC-βII (purified isoform) (Homo sapiens (Human), UniProt P05771 2-621).
T2 construct: also called PKC-beta II
Kind of assay: competitive ELISA on purified PKC-βII vs anti-PKC-βII Ab; PRE 50 µM. Here is the method: (§1) Greiner 96 well ELISA plates were coated with the appropriate PKC isoform diluted in PBSN (PBS with Calcium/Magnesium+0.05% Sodium azide w/w). 50 μL/well at 250 ng/mL was used. Control wells contained PBSN only. Plates were incubated overnight at 4° C.
(§2) The plates were washed 3 times with 200 μL of dH₂O per well, then 100 μL of blocking solution was added per well and the plate incubated for 1 h at 37° C. The washing steps with dH₂O were repeated and 50 μL of the appropriate PRE solution (PRE stock solution [20 mM in DMSO] diluted in PBSN) was added and the plate incubated for 1 h at room temperature.
(§3) 50 μL of 1:1000 dilution of Alkaline Phosphatase (AP) conjugated antibody (anti-rabbit for all except zeta, which was anti-goat) was then added and the plate incubated for 1 h at room temperature. Washing with dH₂O was then repeated. Finally, 100 μL of pNPP solution in pNPP buffer (2 mM MgCl₂, 100 mM Sodium bicarbonate in water, pH 9.8) was added to all wells and incubated for 8 minutes for α, βI, βII ε, and ζ, or for 15-20 mins for […] (until sufficient coloration is observed). The reaction was stopped by addition of Stop solution (2N NaOH) and the absorbance at 405 nm was read on a Galaxy Plate reader.
A general note: ELISA stands for enzyme-linked immunosorbent assay.
Turning to B1, the “binding capacity (%)” value was 0.08%.
The same measure, in the same setting: with B2 the figure was 0%; with B4, 2.69%.

The next assay addresses T3, PKC-ζ (purified isoform) (Homo sapiens (Human), UniProt Q05513 1-592).
T3 construct: also called PKC-zeta; PKCzeta
T3 sequence: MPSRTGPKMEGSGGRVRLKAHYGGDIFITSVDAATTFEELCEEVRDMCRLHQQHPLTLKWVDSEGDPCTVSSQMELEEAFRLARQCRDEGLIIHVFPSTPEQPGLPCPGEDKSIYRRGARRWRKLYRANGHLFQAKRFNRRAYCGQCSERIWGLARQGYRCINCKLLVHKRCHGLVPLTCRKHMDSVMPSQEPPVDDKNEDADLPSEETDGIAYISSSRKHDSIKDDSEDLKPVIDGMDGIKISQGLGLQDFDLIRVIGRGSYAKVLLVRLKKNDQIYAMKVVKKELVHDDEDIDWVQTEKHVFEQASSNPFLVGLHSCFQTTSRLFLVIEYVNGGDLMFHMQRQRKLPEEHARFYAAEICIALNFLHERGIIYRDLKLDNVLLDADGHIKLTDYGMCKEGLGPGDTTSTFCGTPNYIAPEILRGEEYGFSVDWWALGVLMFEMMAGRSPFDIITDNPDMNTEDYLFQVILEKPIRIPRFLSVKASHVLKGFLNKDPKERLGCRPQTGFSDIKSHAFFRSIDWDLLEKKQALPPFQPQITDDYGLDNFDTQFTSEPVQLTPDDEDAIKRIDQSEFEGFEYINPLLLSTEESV
Kind of assay: summary grade, purified isoform ELISA.
As for B1, the binding result is reported as “no binding (tested: 200 µM)”.
On the same count and under the same terms, with B2 the entry was “no binding (tested: 200 µM)”; with B5, “no binding (tested: 200 µM)”.

The target of another assay is T2, PKC-βII (purified isoform). Description: competitive ELISA on purified PKC-βII vs anti-PKC-βII Ab; PRE 200 µM. Here is the method: as §1, §2, §3
Turning to B1, the “binding capacity (%)” value turned out to be 0%.
For the molecule B2, the “binding capacity (%)” value was determined as 0%.
Same read-out and setting: with B4 the figure was 1.18%.

The target of another assay is T4, PKC-α (purified isoform) (Homo sapiens (Human), UniProt P17252 2-672).
T4 construct: also called PKC-alpha; PKCalpha
Kind of assay: competitive ELISA on purified PKC-α vs anti-PKC-α Ab; PRE 50 µM. Here is the method:
as §1, §2, §3
For B6, the “binding capacity (%)” value is 3.29%.
Regarding B3, the “binding capacity (%)” value worked out at 0%.
The same measure, in the same setting: the figure for B7 is 17.5%; for B4 it is 6.46%.
On the same count and under the same terms, with B5 the figure was 0%.
